The results in this text go back to article PMC4207087 (Current biology : CB, 2014).

Data set [1] concerns the molecule itself. Put plainly: negative stain electron microscopy.
The target in data set [2] is microtubules (MTs), individual (UniProt P68363). Put plainly: single-molecule TIRF microscopy.
Data set [3] deals with the molecule itself. Put plainly: single-molecule photobleaching steps.
Data set [4] has as its target microtubules (MTs), individual (UniProt P68363). As to the kind of experiment: single-molecule TIRF microscopy. The source holds these as a separate data set.
Data set [5] has the same target. As to the kind of experiment: single-molecule TIRF microscopy. This is another data set of the same source.
Data set [6] concerns the molecule itself. Put plainly: SEC.

Where two headings read alike, the source gives them in different places.

Chain of microtubules (MTs), individual (P68363 whole entry, chain 1 of 2): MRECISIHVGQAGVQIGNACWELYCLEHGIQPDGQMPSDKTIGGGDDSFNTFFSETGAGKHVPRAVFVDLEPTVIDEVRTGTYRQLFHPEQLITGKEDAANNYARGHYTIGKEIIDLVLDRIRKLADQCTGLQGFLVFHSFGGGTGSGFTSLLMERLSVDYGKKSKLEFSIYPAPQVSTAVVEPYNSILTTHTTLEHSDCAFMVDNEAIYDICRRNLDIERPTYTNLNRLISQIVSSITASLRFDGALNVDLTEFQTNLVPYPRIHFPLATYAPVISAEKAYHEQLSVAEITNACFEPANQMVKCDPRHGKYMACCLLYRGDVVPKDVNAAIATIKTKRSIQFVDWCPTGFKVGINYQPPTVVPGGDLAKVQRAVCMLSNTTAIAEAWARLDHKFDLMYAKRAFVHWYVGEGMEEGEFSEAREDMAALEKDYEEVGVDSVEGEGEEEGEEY
Chain of microtubules (MTs), individual (P07437 whole entry, chain 2 of 2, further chain): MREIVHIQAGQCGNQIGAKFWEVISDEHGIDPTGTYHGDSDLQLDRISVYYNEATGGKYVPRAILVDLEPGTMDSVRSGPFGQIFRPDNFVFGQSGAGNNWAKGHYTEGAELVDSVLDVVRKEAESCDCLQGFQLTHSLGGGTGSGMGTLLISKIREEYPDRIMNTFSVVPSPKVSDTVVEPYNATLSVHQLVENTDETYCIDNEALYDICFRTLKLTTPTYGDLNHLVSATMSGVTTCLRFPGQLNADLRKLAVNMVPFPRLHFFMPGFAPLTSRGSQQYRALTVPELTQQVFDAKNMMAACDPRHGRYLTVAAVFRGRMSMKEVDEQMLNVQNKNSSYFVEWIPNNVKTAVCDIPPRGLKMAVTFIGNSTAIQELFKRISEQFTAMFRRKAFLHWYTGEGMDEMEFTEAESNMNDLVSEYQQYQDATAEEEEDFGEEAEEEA

B1: GFP-HSET (kinesin-14 HSET) (natural protein, UniProt Q9BW19 1-673, looked up)
chain: MDPQRSPLLEVKGNIELKRPLIKAPSQLPLSGSRLKRRPDQMEDGLEPEKKRTRGLGATTKITTSHPRVPSLTTVPQTQGQTTAQKVSKKTGPRCSTAIATGLKNQKPVPAVPVQKSGTSGVPPMAGGKKPSKRPAWDLKGQLCDLNAELKRCRERTQTLDQENQQLQDQLRDAQQQVKALGTERTTLEGHLAKVQAQAEQGQQELKNLRACVLELEERLSTQEGLVQELQKKQVELQEERRGLMSQLEEKERRLQTSEAALSSSQAEVASLRQETVAQAALLTEREERLHGLEMERRRLHNQLQELKGNIRVFCRVRPVLPGEPTPPPGLLLFPSGPGGPSDPPTRLSLSRSDERRGTLSGAPAPPTRHDFSFDRVFPPGSGQDEVFEEIAMLVQSALDGYPVCIFAYGQTGSGKTFTMEGGPGGDPQLEGLIPRALRHLFSVAQELSGQGWTYSFVASYVEIYNETVRDLLATGTRKGQGGECEIRRAGPGSEELTVTNARYVPVSCEKEVDALLHLARQNRAVARTAQNERSSRSHSVFQLQISGEHSSRGLQCGAPLSLVDLAGSERLDPGLALGPGERERLRETQAINSSLSTLGLVIMALSNKESHVPYRNSKLTYLLQNSLGGSAKMLMFVNISPLEENVSESLNSLRFASKVNQCVIGTAQANRK
In general, stoichiometry N refers to the number of molecules, sites or subunits per partner or assembly. For B1, the “stoichiometry N” value in data set [1] was 2.

B2: GFP-Kif15-FL (full-length Kif15, Kinesin-12) (natural protein, UniProt Q9NS87 1-1388, looked up)
chain: MAPGCKTELRSVTNGQSNQPSNEGDAIKVFVRIRPPAERSGSADGEQNLCLSVLSSTSLRLHSNPEPKTFTFDHVADVDTTQESVFATVAKSIVESCMSGYNGTIFAYGQTGSGKTFTMMGPSESDNFSHNLRGVIPRSFEYLFSLIDREKEKAGAGKSFLCKCSFIEIYNEQIYDLLDSASAGLYLREHIKKGVFVVGAVEQVVTSAAEAYQVLSGGWRNRRVASTSMNRESSRSHAVFTITIESMEKSNEIVNIRTSLLNLVDLAGSERQKDTHAEGMRLKEAGNINRSLSCLGQVITALVDVGNGKQRHVCYRDSKLTFLLRDSLGGNAKTAIIANVHPGSRCFGETLSTLNFAQRAKLIKNKAVVNEDTQGNVSQLQAEVKRLKEQLAELASGQTPPESFLTRDKKKTNYMEYFQEAMLFFKKSEQEKKSLIEKVTQLEDLTLKKEKFIQSNKMIVKFREDQIIRLEKLHKESRGGFLPEEQDRLLSELRNEIQTLREQIEHHPRVAKYAMENHSLREENRRLRLLEPVKRAQEMDAQTIAKLEKAFSEISGMEKSDKNQQGFSPKAQKEPCLFANTEKLKAQLLQIQTELNNSKQEYEEFKELTRKRQLELESELQSLQKANLNLENLLEATKACKRQEVSQLNKIHAETLKIITTPTKAYQLHSRPVPKLSPEMGSFGSLYTQNSSILDNDILNEPVPPEMNEQAFEAISEELRTVQEQMSALQAKLDEEEHKNLKLQQHVDKLEHHSTQMQELFSSERIDWTKQQEELLSQLNVLEKQLQETQTKNDFLKSEVHDLRVVLHSADKELSSVKLEYSSFKTNQEKEFNKLSERHMHVQLQLDNLRLENEKLLESKACLQDSYDNLQEIMKFEIDQLSRNLQNFKKENETLKSDLNNLMELLEAEKERNNKLSLQFEEDKENSSKEILKVLEAVRQEKQKETAKCEQQMAKVQKLEESLLATEKVISSLEKSRDSDKKVVADLMNQIQELRTSVCEKTETIDTLKQELKDINCKYNSALVDREESRVLIKKQEVDILDLKETLRLRILSEDIERDMLCEDLAHATEQLNMLTEASKKHSGLLQSAQEELTKKEALIQELQHKLNQKKEEVEQKKNEYNFKMRQLEHVMDSAAEDPQSPKTPPHFQTHLAKLLETQEQEIEDGRASKTSLEHLVTKLNEDREVKNAEILRMKEQLREMENLRLESQQLIEKNWLLQGQLDDIKRQKENSDQNHPDNQQLKNEQEESIKERLAKSKIVEEMLKMKADLEEVQSALYNKEMECLRMTDEVERTQTLESKAFQEKEQLRSKLEEMYEERERTSQEMEMLRKQVECLAEENGKLVGHQNLHQKIQYVVRLKKENVRLAEETEKLRAENVFLKEKKRSES
Consider B2, for which the dwell time in data set [2] came out at 1.9 s; in data set [4], 12.2 s; in data set [5] it was 4 s. The “stoichiometry N” value in data set [3] was 2.

B3: Kif15-N700 (C-terminally truncated Kif15) (domain or fragment, UniProt Q9NS87 1-700, looked up)
chain: MAPGCKTELRSVTNGQSNQPSNEGDAIKVFVRIRPPAERSGSADGEQNLCLSVLSSTSLRLHSNPEPKTFTFDHVADVDTTQESVFATVAKSIVESCMSGYNGTIFAYGQTGSGKTFTMMGPSESDNFSHNLRGVIPRSFEYLFSLIDREKEKAGAGKSFLCKCSFIEIYNEQIYDLLDSASAGLYLREHIKKGVFVVGAVEQVVTSAAEAYQVLSGGWRNRRVASTSMNRESSRSHAVFTITIESMEKSNEIVNIRTSLLNLVDLAGSERQKDTHAEGMRLKEAGNINRSLSCLGQVITALVDVGNGKQRHVCYRDSKLTFLLRDSLGGNAKTAIIANVHPGSRCFGETLSTLNFAQRAKLIKNKAVVNEDTQGNVSQLQAEVKRLKEQLAELASGQTPPESFLTRDKKKTNYMEYFQEAMLFFKKSEQEKKSLIEKVTQLEDLTLKKEKFIQSNKMIVKFREDQIIRLEKLHKESRGGFLPEEQDRLLSELRNEIQTLREQIEHHPRVAKYAMENHSLREENRRLRLLEPVKRAQEMDAQTIAKLEKAFSEISGMEKSDKNQQGFSPKAQKEPCLFANTEKLKAQLLQIQTELNNSKQEYEEFKELTRKRQLELESELQSLQKANLNLENLLEATKACKRQEVSQLNKIHAETLKIITTPTKAYQLHSRPVPKLSPEMGSFGSLYTQNSSILDNDILN
Regarding B3, the “stoichiometry N” value in data set [6] worked out at 2.
